Data published in patent publication US20210261654A1 (BEIJING BEYOND BIOTECHNOLOGY, published 2021).

Target: T1, Recombinant human TNF-α (Sino Biological Inc., catalog number: 10602-HNAE) (human, UniProt P01375 77-233)
T1 construct: Bought protein; also called recombinant human TNF-α protein
Assay: SPR (Biacore T100), BY19.4 captured by anti-IgG on CM5 chip

T1 sequence (P01375 77-233 limits assumed): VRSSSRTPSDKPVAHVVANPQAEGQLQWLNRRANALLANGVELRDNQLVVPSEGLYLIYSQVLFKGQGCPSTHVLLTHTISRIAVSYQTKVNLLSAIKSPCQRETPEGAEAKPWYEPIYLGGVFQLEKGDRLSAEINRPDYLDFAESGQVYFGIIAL

B1: anti-IL-17A antibody BY19.4 (antibody, human IgG4 S228P, kappa, V domains shown)
VH: QVQLVQSGAEVKKPGSSVKVSCKASGYSFTDYHIHWVRQAPGQGLEWMGVINPMYGTTDYNQRFKGRVTITADESTSTAYMELSSLRSEDTAVYYCARYDYFTGTGVYWGQGTLVTVSS
VL: DIVMTQTPLSLSVTPGQPASISCRSSRSLVHSRGNTYLHWYLQKPGQSPQLLIYKVSNRFIGVPDRFSGSGSGTDFTLKISRVEAEDVGVYYCSQSTHLPFTFGQGTKVEIKR
notes: also called control antibody BY19.4; BY19.4 (ixekizumab)
Does B1 bind?
Result: no binding (tested: 7 nM to 600 nM tested)
